Data on 16 sequences can be found in the nanobody polyreactivity screen of Harvey et al. (2022).

The data set in a line: yeast display, Sf9 membrane polyspecificity reagent, FACS + sequencing; frameworks hold sequencing errors. In a few lines: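 A nanobody's polyreactivity label depends on the gate it was sorted from. Yeast display cells were stained with 10% biotinylated, detergent-solubilized Sf9 membrane reagent for 1 hour at 4 °C, enriched on streptavidin microbeads and sorted by FACS. The low and high (top ~1%) gates were set on anti-HA fluorescence for expression and streptavidin fluorescence for reagent binding.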
With “QVQLVESGGGLVQAGGSLRLSCAASGSTFPVYAMGWYRQAPGKERELVAAINSGVSTNYADSVKGRFTISRDNAKNTVYLQMNSLKPEDTAVYYCNTSYVGYPDLGINYEFDYWGQGTQVTVSS”, the “polyreactivity (PSR sort gate)” value was “low polyreactivity”.
Next, “QVQLVESGGGLVQAGGSLRLSCAASGSTFPVYAMGWYRQAPGKERELVATISYSGGSTNYADSVKGRFTISRDNAKNTVYLQMNSLIPEDTAVYYCAARKVNRGSGGYDSWGQGTQVTVSS”: “high polyreactivity”; “QVQLVESGGGLVQAGGSLRLSCAASGSTFPWYTMGWYRQAPGKERELVAAISFSGGRTYYADSVKGRFTISRDNAKNTVYLQMNSLKPEDTAVYYCAATVGAASRYYYWGQGTQVTVSS”: “high polyreactivity”; “QVQLVESGGGLVQAGGSLRLSCAASGSTFPYNAKGWYRQAPGKERELVAAIDYSGGSTYADSVKGRFTISRDNAKNTVYLQMNSLKPEDTAVYYCAYCRVVVYDVSGDDEDYDYWRQGTQVTVSS”: “low polyreactivity”.
For “QVQLVESGGGLVQAGGSLRLSCAASGSTFPYNTMGWYRQAPGKERDFVAAITGDGGTTYYADSVKGRFTISRDNAQNTVYLQMNSLKQEDTAVYYCAVPYPAEGYGGDYWGQGSQVTVSS” the value was “low polyreactivity”; for “QVQLVESGGGLVQAGGSLRLSCAASGSTFPYYAMGRYRQAPGKERELVAAISQNGGSTYYADSVKGRFTISRDNAKNTVYLQMNSLKPEDTAVYYCNADGVGGEYRLSGYDYWGQGTQVTVSS”, “low polyreactivity”.
For “QVQLVESGGGLVQAGGSLRLSCAASGSTFPYYAMGWYRQAPGKERELVAAISGSGGTTYYADSVKGRFTISRDNAKNTVYLQMNILKPEDTAVYYCAAEASHYYYNAYPSYGGSDYWGQGTQVTVSS” the value was “low polyreactivity”; for “QVQLVESGGGLVQAGGSLRLSCAASGSTFPYYAMGWYRQAPGKERELVAAITSGGSTYYADSVKGRFTISRDNAKNTVYLQMNSLKPEDTAVYYCAARYAPTLSVYRFYYWGQGTQVTVSS”, “high polyreactivity”; for “QVQLVESGGGLVQAGGSLRLSCAASGSTFPYYAMGWYRQAPGKERELVAAITSSTGRTYYADSVKGRFTISRDNAKNTVYFQMNSLKPEDTAVYYCNAEVYSDPYNDHDYWGQGTQVTVSS”, “low polyreactivity”.
Regarding “QVQLVESGGGLVQAGGSLRLSCAASGSTFPYYAMGWYRQAPGKEWDLVAAISASVGSTYYADSVKGRFTISRDNAKNTVYLQMNSLKPEDTAVYYCNRVRSSYVYVSRFDSWGQGNQVTVSS”, the “polyreactivity (PSR sort gate)” value is “high polyreactivity”.
For the sequence “QVQLVESGGGLVQAGGSLRLSCAASGSTFPYYARVWYRQEPGKETELVAAISSSGGSTYYADSVKGRFTISRDNAKNTVFLQMNSLKPEDPAVYYCAARRKFPYRHDYWGQGTLVTVSS”, the “polyreactivity (PSR sort gate)” value is “high polyreactivity”.
For “QVQLVESGGGLVQAGGSLRLSCAASGSTFPYYGMGWYRQAPGKERELVAAINSGGSTYYADSVKGRFTISRDNAKNTVYLQMNSLKPEDTAVYYCNAAYPEWYAYDYWGQGTQVTVSS” the value was “low polyreactivity”; for “QVQLVESGGGLVQAGGSLRLSCAASGSTFPYYTMGWYRQAPGKERELVAAITWRGGRTYYADSVKGRFTISRDNAKNTVYLQMNSLKPEDTAVYYCAAVTWVHRYSRFHPFVAFDFWGQGTQVTVSS”, “high polyreactivity”.
As for “QVQLVESGGGLVQAGGSLRLSCAASGSTFPYYVMGWYRQAPGKERELVAAISWSGASTYYADSVKGRFTISRDNAKNTVYLQMNSLKPEDTAVYYCNRPKWYDGDYWGQGTQVTVSS”, the “polyreactivity (PSR sort gate)” value is “high polyreactivity”.
For “QVQLVESGGGLVQAGGSLRLSCAASGSTFQFNFMGWYRQAPGKERELVAAITSGASTYYADSVKGRFTISRDNAMNTVYLQMNSLEPEDTAVYYCAVDYSFRYDYVQRYYYLGQGTQVTVSS” the value was “high polyreactivity”; for “QVQLVESGGGLVQAGGSLRLSCAASGSTFQGYAMGWYGQAPGKERELVAAINYSGGSTYYADSVKGRFTISRDNAKNTVYLQMNSLKPEDTAVYFCAARWYAVRDDYIVRYDYWGQGTQVTVSS”, “high polyreactivity”.
